Measured values: the supplement of paper PMC7877785
± gives the uncertainty stated by the source.

Assay: self-splicing fitness, log relative to wild type (ln ratio); higher = more splicing; Tetrahymena group I intron in knt gene, E. coli kanamycin selection, DiMSum; sequences stand for … in CUCUCU…GGAGGGAAAAGUUAUCAGGCAUGCACCUGGUAGCUAGUCUUUAAACCAAUAGAUUGCAUCGGUUUAAAAGGCAAGACCGUCAAAUUGCGGGAAAGGGGUCAACAGCCGUUCAGUACCAAGUCUCAGGGGAAACUUUGAGAUGGCCUUGCAAAGGGUAUGGUAAUAAGCUGACGGACAUGGUCCUAACCACGCAGCCAAGUCCUAAGUCAACAGAUCUUCUGUUGAUAUGGAUGCAGUUCACAGACUAAAUGUCGGUCGGGGAAGAUGUAUUCUUCUCAUAAGAUAUAGUCGGACCUCUCCUUAAUGGGAGCUAGCGGAUGAAGUGAUGCAACACUGGAGCCGCUGGGAACUAAUUUGUAUGCGAAAGUAUAUUGAUUAGUUUUGGAGUACUCGUGGUCG
Outline: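 Six replicate transformations of E. coli BL21(DE3) with a pET-22b(+) library were grown overnight at 37°C or 30°C. The library randomised all eight P1ex-region intron nucleotides, the intron lying in the knt kanamycin-resistance gene, and plates were LB agar with or without 25 μg/mL kanamycin plus 100 μg/mL carbenicillin, 50 μM IPTG and 0.2% rhamnose. Pooled colonies were amplicon-sequenced on an Illumina HiSeq 2500, and fitness is the DiMSum error-weighted combination of wild-type-normalised replicate fold changes, kanamycin versus none.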

Row | Sequence | self-splicing fitness (ln) (30 °C) | self-splicing fitness (ln) (37 °C)
1 | GAGGAGCAAUAUUACGUUGA | -3.73 ± 0.42 | -2.24 ± 0.33
2 | GAGUAGCAAUAUUACGAAAG |  | -1.2 ± 0.3
3 | GAGUAGCAAUAUUACGACCU | 0.288 ± 0.14 | -1.02 ± 0.16
4 | GAGUAGCAAUAUUACGAGAC | -3.25 ± 0.43 | -2.95 ± 0.48
5 | GAGUAGCAAUAUUACGAGCG | -2.04 ± 0.075 | -0.489 ± 0.077
6 | GAGUAGCAAUAUUACGAGUU | -2.27 ± 0.095 | -0.98 ± 0.1
7 | GAGUAGCAAUAUUACGAUUG | -2.87 ± 0.25 | -2.14 ± 0.19
8 | GAGUAGCAAUAUUACGAUUU | -0.387 ± 0.086 | -0.312 ± 0.1
9 | GAGUAGCAAUAUUACGCAAA | -2.45 ± 0.44 | -1.63 ± 0.22
10 | GAGUAGCAAUAUUACGCCAA | -1.98 ± 0.43 | -1.66 ± 0.32
11 | GAGUAGCAAUAUUACGCGUA | -2.66 ± 0.33 | -0.648 ± 0.29
12 | GAGUAGCAAUAUUACGCUAA | -1.92 ± 0.15 | -1.97 ± 0.2
13 | GAGUAGCAAUAUUACGCUGG | -2.77 ± 0.29 | -1.48 ± 0.25
14 | GAGUAGCAAUAUUACGGGUA | -2.78 ± 0.35 | -2.54 ± 0.26
15 | GAGUAGCAAUAUUACGUACC | -1.54 ± 0.17 | -0.923 ± 0.27
16 | GAGUAGCAAUAUUACGUACG | -2.67 ± 0.18 | 0.056 ± 0.13
17 | GAGUAGCAAUAUUACGUCAG | -2.86 ± 0.17 | -2.24 ± 0.34
18 | GAGUAGCAAUAUUACGUUCA | -0.849 ± 0.075 | -0.31 ± 0.095
19 | GAGUAGCAAUAUUACGUUGA | -2.27 ± 0.27 | -2.76 ± 0.36
20 | GAUAAGCAAUAUUACGAAAU | -1.13 ± 0.13 | -1.11 ± 0.15
21 | GAUAAGCAAUAUUACGAACC | -0.954 ± 0.1 | -0.647 ± 0.13
22 | GAUAAGCAAUAUUACGAACU | -0.896 ± 0.079 | -0.073 ± 0.11
23 | GAUAAGCAAUAUUACGAAGG | -2.27 ± 0.15 | -1.86 ± 0.2
24 | GAUAAGCAAUAUUACGAAUU | -3.63 ± 0.26 | -2.76 ± 0.25

Row | Sequence | self-splicing fitness (ln) (30 °C) | self-splicing fitness (ln) (37 °C)
25 | GAUAAGCAAUAUUACGACUC | 0.0338 ± 0.1 | 0.785 ± 0.13
26 | GAUAAGCAAUAUUACGAGAU | -3.66 ± 0.21 | -2.14 ± 0.21
27 | GAUAAGCAAUAUUACGAGCU | -0.688 ± 0.11 | -1.13 ± 0.12
28 | GAUAAGCAAUAUUACGAGGA | -2.86 ± 0.29 | -2.12 ± 0.27
29 | GAUAAGCAAUAUUACGAUUG | -2.59 ± 0.11 | -1.82 ± 0.18
30 | GAUAAGCAAUAUUACGCAGG | -1.69 ± 0.13 | -2.95 ± 0.21
31 | GAUAAGCAAUAUUACGCAUC | -3.06 ± 0.23 | -1.21 ± 0.35
32 | GAUAAGCAAUAUUACGCCCA | -0.168 ± 0.13 | -0.865 ± 0.14
33 | GAUAAGCAAUAUUACGCGGG | -2.89 ± 0.11 | -2.34 ± 0.12
34 | GAUAAGCAAUAUUACGCGGU | -3.19 ± 0.25 | -1.01 ± 0.19
35 | GAUAAGCAAUAUUACGCUAG | -2.45 ± 0.15 | 0.0994 ± 0.13
36 | GAUAAGCAAUAUUACGCUUA | -3.59 ± 0.31 | -2.91 ± 0.23
37 | GAUAAGCAAUAUUACGGAAC | -3.85 ± 0.42 | -1.6 ± 0.18
38 | GAUAAGCAAUAUUACGGAAG | -3.56 ± 0.35 | -1.95 ± 0.23
39 | GAUAAGCAAUAUUACGGACC | -1.24 ± 0.25 | -1.4 ± 0.28
40 | GAUAAGCAAUAUUACGGACG | -1.08 ± 0.13 | -0.201 ± 0.14
41 | GAUAAGCAAUAUUACGGAUC | -1.37 ± 0.18 | -0.674 ± 0.25
42 | GAUAAGCAAUAUUACGGCGU | 0.319 ± 0.077 | 0.486 ± 0.1
43 | GAUAAGCAAUAUUACGGGCU | -1.95 ± 0.11 | -1.91 ± 0.16
44 | GAUAAGCAAUAUUACGGUCC |  | -3.48 ± 0.46
45 | GAUAAGCAAUAUUACGUAAA | -2.24 ± 0.17 | -1.19 ± 0.17
46 | GAUAAGCAAUAUUACGUCAU | -2.38 ± 0.086 | -1.62 ± 0.095
47 | GAUAAGCAAUAUUACGUCGG | -3.81 ± 0.35 | -3.35 ± 0.28
48 | GAUAAGCAAUAUUACGUGAU | -2.21 ± 0.12 | -0.957 ± 0.12

Row | Sequence | self-splicing fitness (ln) (30 °C) | self-splicing fitness (ln) (37 °C)
49 | GAUAAGCAAUAUUACGUUAG | -5.21 ± 0.45 | -2.27 ± 0.22
50 | GAUAAGCAAUAUUACGUUGA | -2.88 ± 0.14 | -1.79 ± 0.14
51 | GAUAAGCAAUAUUACGUUUA | -1.59 ± 0.12 | -0.982 ± 0.12
52 | GAUCAGCAAUAUUACGAAGU | -1.17 ± 0.12 | -0.265 ± 0.13
53 | GAUCAGCAAUAUUACGACAC | 0.702 ± 0.14 | 0.591 ± 0.17
54 | GAUCAGCAAUAUUACGACCC | -2.02 ± 0.2 | -1.65 ± 0.29
55 | GAUCAGCAAUAUUACGACCG | -1.01 ± 0.11 | -0.323 ± 0.14
56 | GAUCAGCAAUAUUACGACUU | 0.107 ± 0.092 | -0.119 ± 0.11
57 | GAUCAGCAAUAUUACGAGCA | -1.26 ± 0.1 | -0.318 ± 0.1
58 | GAUCAGCAAUAUUACGAUCC | -3.69 ± 0.37 | -2.18 ± 0.39
59 | GAUCAGCAAUAUUACGCCGA | -0.954 ± 0.12 | -0.727 ± 0.11
60 | GAUCAGCAAUAUUACGCGCC | -0.0847 ± 0.14 | -0.763 ± 0.17
61 | GAUCAGCAAUAUUACGCUUC | -3.16 ± 0.22 | -2.25 ± 0.43
62 | GAUCAGCAAUAUUACGGAGA | -2.08 ± 0.17 | -0.869 ± 0.14
63 | GAUCAGCAAUAUUACGGCGC | -0.52 ± 0.11 | 0.0329 ± 0.14
64 | GAUCAGCAAUAUUACGGGAA | -0.882 ± 0.13 | -1.04 ± 0.13
65 | GAUCAGCAAUAUUACGGUGU | -0.951 ± 0.072 | 0.335 ± 0.093
66 | GAUCAGCAAUAUUACGUACG | -1.5 ± 0.14 | -0.586 ± 0.14
67 | GAUCAGCAAUAUUACGUAGG | -1.87 ± 0.1 | -1.48 ± 0.14
68 | GAUCAGCAAUAUUACGUGAU | -3.23 ± 0.18 | -2.93 ± 0.22
69 | GAUCAGCAAUAUUACGUUAG | -2.05 ± 0.12 | -1.92 ± 0.17
70 | GAUCAGCAAUAUUACGUUGG | -3.67 ± 0.24 | -0.912 ± 0.12
71 | GAUGAGCAAUAUUACGAAUU | -3.84 ± 0.47 | 
72 | GAUGAGCAAUAUUACGACUU | -0.252 ± 0.071 | 0.118 ± 0.089

Row | Sequence | self-splicing fitness (ln) (30 °C) | self-splicing fitness (ln) (37 °C)
73 | GAUGAGCAAUAUUACGAGAU |  | -3.21 ± 0.47
74 | GAUGAGCAAUAUUACGAGUC | -4.11 ± 0.33 | -2.21 ± 0.19
75 | GAUGAGCAAUAUUACGAUAU | -3.81 ± 0.21 | -2.58 ± 0.24
76 | GAUGAGCAAUAUUACGCCAG | -3.63 ± 0.22 | -3.07 ± 0.4
77 | GAUGAGCAAUAUUACGCGCU | -1.97 ± 0.23 | -1.88 ± 0.45
78 | GAUGAGCAAUAUUACGCUAU | -2 ± 0.38 | 
79 | GAUGAGCAAUAUUACGCUCA | -1.18 ± 0.41 | -0.934 ± 0.42
80 | GAUGAGCAAUAUUACGGACC | -0.753 ± 0.19 | -0.541 ± 0.22
81 | GAUGAGCAAUAUUACGGAGG | -3.47 ± 0.26 | -3.23 ± 0.35
82 | GAUGAGCAAUAUUACGGCGG | -3.43 ± 0.3 | -1.88 ± 0.26
83 | GAUGAGCAAUAUUACGUACU | -1.85 ± 0.19 | -0.913 ± 0.26
84 | GAUGAGCAAUAUUACGUCCA | -2.12 ± 0.36 | -2.26 ± 0.32
85 | GAUGAGCAAUAUUACGUCUG | -2.66 ± 0.19 | -2.96 ± 0.28
86 | GAUGAGCAAUAUUACGUGCA | -1.14 ± 0.12 | -1.82 ± 0.15
87 | GAUGAGCAAUAUUACGUGCC | -2.92 ± 0.23 | -2.3 ± 0.42
88 | GAUUAGCAAUAUUACGAACC | -0.528 ± 0.24 | -0.802 ± 0.37
89 | GAUUAGCAAUAUUACGAAUA | -1.1 ± 0.29 | -0.71 ± 0.26
90 | GAUUAGCAAUAUUACGAGGC | -4.11 ± 0.46 | -1.02 ± 0.28
91 | GAUUAGCAAUAUUACGAUAC | -1.24 ± 0.19 | -0.415 ± 0.18
92 | GAUUAGCAAUAUUACGAUGU | -0.783 ± 0.074 | -0.611 ± 0.1
93 | GAUUAGCAAUAUUACGAUUU | -0.392 ± 0.12 | 0.757 ± 0.13
94 | GAUUAGCAAUAUUACGCACC | -1.5 ± 0.081 | -0.681 ± 0.084
95 | GAUUAGCAAUAUUACGCGGC | -3.08 ± 0.38 | -2 ± 0.35
96 | GAUUAGCAAUAUUACGGAAG | -2.01 ± 0.24 | -2.18 ± 0.28
